According to paper PMC9799976:

Tests used:
[1] = target: full-length human dynein complex (heavy chain with SNAP-tag, IC, LIC, Tctex, LC8, Robl) (human) (UniProt Q14204); assay: single-molecule TIRF microscopy; DDJ complexes assembled with equal amounts of dynein labeled with TMR and Alexa 647, without N-DCX; two-colour colocalisation of moving molecules
[2] = target: fluorescently labelled, biotinylated, taxol-stabilised microtubules for the TIRF assays
[3] = target: fluorescently labelled, biotinylated, taxol-stabilised microtubules for the TIRF assays; assay: single-molecule TIRF microscopy; TIRF landing assay: MTs immobilised on the coverslip, GFP-tagged single-head dynein in motility buffer, 2 mM ATP, with DCX; set-up: landing rate on MTs: unit not given here
[4] = target: fluorescently labelled, biotinylated, taxol-stabilised microtubules for the TIRF assays; assay: single-molecule TIRF microscopy; TIRF landing assay: MTs immobilised on the coverslip, GFP-tagged single-head dynein in motility buffer, 2 mM AMPPNP, with DCX; set-up: landing rate on MTs: unit not given here
[5] = target: fluorescently labelled, biotinylated, taxol-stabilised microtubules for the TIRF assays; assay: single-molecule TIRF microscopy; TIRF landing assay: MTs immobilised on the coverslip, GFP-tagged single-head dynein in motility buffer, 2 mM ATP, without DCX; set-up: landing rate on MTs: unit not given here
[6] = target: fluorescently labelled, biotinylated, taxol-stabilised microtubules for the TIRF assays; assay: single-molecule TIRF microscopy; TIRF landing assay: MTs immobilised on the coverslip, GFP-tagged single-head dynein in motility buffer, 2 mM AMPPNP, without DCX; set-up: landing rate on MTs: unit not given here
[7] = target: fluorescently labelled, biotinylated, taxol-stabilised microtubules for the TIRF assays; assay: single-molecule TIRF microscopy; TIRF landing assay: MTs immobilised on the coverslip, GFP-tagged single-head dynein in motility buffer, 2 mM ADP and 0.05 U/µl hexokinase, with DCX; set-up: landing rate on MTs: unit not given here
[8] = target: fluorescently labelled, biotinylated, taxol-stabilised microtubules for the TIRF assays; assay: single-molecule TIRF microscopy; TIRF landing assay: MTs immobilised on the coverslip, GFP-tagged single-head dynein in motility buffer, 2 mM ADP and 0.05 U/µl hexokinase, without DCX; set-up: landing rate on MTs: unit not given here

Sequence of fluorescently labelled, biotinylated, taxol-stabilised microtubules for the TIRF assays (chain, as listed by the source, chain 1 of 2): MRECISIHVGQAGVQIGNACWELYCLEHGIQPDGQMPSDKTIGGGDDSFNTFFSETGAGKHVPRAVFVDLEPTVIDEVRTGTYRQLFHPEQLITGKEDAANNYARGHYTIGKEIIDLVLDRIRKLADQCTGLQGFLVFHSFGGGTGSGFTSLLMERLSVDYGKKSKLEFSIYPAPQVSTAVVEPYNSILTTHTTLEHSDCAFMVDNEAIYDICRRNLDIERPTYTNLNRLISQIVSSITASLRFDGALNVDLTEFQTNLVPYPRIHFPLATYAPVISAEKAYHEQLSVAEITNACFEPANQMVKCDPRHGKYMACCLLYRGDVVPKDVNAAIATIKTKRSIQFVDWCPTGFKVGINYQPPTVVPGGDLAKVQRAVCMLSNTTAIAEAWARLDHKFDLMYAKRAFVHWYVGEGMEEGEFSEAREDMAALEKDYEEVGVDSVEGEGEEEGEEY
Sequence of fluorescently labelled, biotinylated, taxol-stabilised microtubules for the TIRF assays (chain, as listed by the source, chain 2 of 2): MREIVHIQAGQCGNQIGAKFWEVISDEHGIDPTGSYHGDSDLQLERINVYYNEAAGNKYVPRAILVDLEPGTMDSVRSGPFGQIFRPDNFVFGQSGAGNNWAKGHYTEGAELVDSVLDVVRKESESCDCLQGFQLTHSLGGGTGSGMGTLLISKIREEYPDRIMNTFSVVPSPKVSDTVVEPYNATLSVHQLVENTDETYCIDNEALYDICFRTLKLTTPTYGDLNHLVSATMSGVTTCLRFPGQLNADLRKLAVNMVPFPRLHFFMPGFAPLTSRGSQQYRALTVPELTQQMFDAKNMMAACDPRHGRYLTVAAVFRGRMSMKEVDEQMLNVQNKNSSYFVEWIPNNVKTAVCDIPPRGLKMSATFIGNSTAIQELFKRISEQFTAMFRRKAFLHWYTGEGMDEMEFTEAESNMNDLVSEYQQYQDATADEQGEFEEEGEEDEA

Row | Substance | fraction of colocalization of two differently labeled dyneins in moving DDJ complexes [1] | velocity of MT gliding powered by surface-bound single-headed dynein with 10 nM DCX (without DCX: 0.59 [0.56, 0.63] µm/s) [2] | dwell time on MTs (median) [3] | landing rate on MTs [3] | dwell time on MTs (median) [4] | landing rate on MTs [4] | dwell time on MTs (median) [5] | landing rate on MTs [5] | dwell time on MTs (median) [6] | landing rate on MTs [6] | dwell time on MTs (median) [7] | landing rate on MTs [7] | dwell time on MTs (median) [8] | landing rate on MTs [8]
1 | full-length human dynein complex (heavy chain with SNAP-tag, IC, LIC, Tctex, LC8, Robl) (from UniProt Q14204 1-4646; Q13409 1-638; O43237 1-492; P63172 1-113; P63167 1-89; Q9NP97 1-96) | 42% | – | – | – | – | – | – | – | – | – | – | – | – | –
2 | tail-truncated single-headed human dynein (amino acids 1320-4646 of DYNC1H1), N-terminal GFP, Q14204 1320-4646 | – | 0.55 µm/s | 1.1 s | 1.4 | 1.2 s | 1.1 | 1 s | 1.6 | 1.1 s | 2.1 | 1.3 s | 1.6 | 1.4 s | 2.1
